Tests used:
Conditions in all cases: both partners purified
[1] = molecular target: T1, Homo sapiens DNA polymerase ε (POLE1, POLE2, POLE3, POLE4) (human, UniProt Q07864 1-2286; P56282 1-527; Q9NRF9 1-147; Q9NR33 1-117); test: co-IP; purified proteins mixed: 10 nM RTEL1-FLAG with 15 nM hsPol ε, 10 min on ice; anti-FLAG M2 magnetic beads; 25 mM Hepes-KOH pH 7.6, 200 mM KOAc, 0.02% NP-40-S, 0.1 mg/mL BSA, 1 mM DTT, 10 mM Mg(OAc)2; immunoblotting
T1 construct: POLE1 (catalytic subunit of DNA polymerase ε), human; POLE2 (homologue of budding yeast Dpb2), human (PolE2_tev_2XFLAG; tag removed with TEV protease); POLE3, human; POLE4, human; The methods call the removed tag 3FLAG, the strain and plasmid 2XFLAG; also called hsPOL ε; POL ε; source: S. cerevisiae strain ySP061, purified (anti-FLAG M2 resin, TEV cleavage, MonoQ, Superdex 200); not shown: …

[2] = molecular target: T2, Homo sapiens CMG helicase (CDC45-MCM2-7-GINS) (human, UniProt P49736 1-904; P25205 1-808; P33991 1-863; P33992 1-734; Q14566 1-821; P33993 …); test: co-IP; purified proteins mixed: 10 nM RTEL1-FLAG with 15 nM hsCMG, 10 min on ice; anti-FLAG M2 magnetic beads; 25 mM Hepes-KOH pH 7.6, 100 mM KOAc, 0.02% NP-40-S, 0.1 mg/mL BSA, 1 mM DTT, 10 mM Mg(OAc)2; immunoblotting
T2 construct: MCM2, human, subunit of CMG; MCM3, human, subunit of CMG; MCM4, human, subunit of CMG; MCM5, human, subunit of CMG; MCM6, human, subunit of CMG; MCM7, human, subunit of CMG; CDC45, human, subunit of CMG; SLD5 (GINS4), human, GINS subunit of CMG (PrA-3TEV-HsSld5; eluted from IgG Sepharose with TEV protease); PSF1 (GINS1), human, GINS subunit of CMG; PSF2 (GINS2), human, GINS subunit of CMG; PSF3 …

[3] = molecular target: T3, DNA polymerase ε (Pol2, Dpb2, Dpb3, Dpb4), S. cerevisiae (S. cerevisiae, UniProt P21951 1-2222; P24482 1-689; P27344 1-201; Q04603 1-196); test: co-IP; purified proteins mixed: 10 nM FLAG-Rrm3 with 15 nM Pol ε, 10 min on ice; anti-FLAG M2 magnetic beads; 25 mM Hepes-KOH pH 7.6, 400 mM KOAc, 0.02% NP-40-S, 0.1 mg/mL BSA, 1 mM DTT, 10 mM Mg(OAc)2; immunoblotting
T3 construct: Pol2, catalytic subunit of DNA polymerase ε, S. cerevisiae; Dpb2, second largest subunit of DNA polymerase ε, S. cerevisiae; Dpb3, subunit of DNA polymerase ε, S. cerevisiae; Dpb4, subunit of DNA polymerase ε, S. cerevisiae (DPB4-TEV-CBP); also called Polε; Pol ε; source: S. cerevisiae strain yAJ2, purified as previously described (Yeeles et al, 2015); copies: + + +

[4] = molecular target: T4, CMGE (budding yeast CMG helicase, Cdc45-Mcm2-7-GINS, together with DNA polymerase ε) (S. cerevisiae, UniProt P29469 1-868; P24279 1-971; P30665 1-933; P29496 1-775; P53091 1-1017; P38132 …); test: co-IP; purified proteins mixed: 1–10 nM Rrm3/Rrm3N-BacPif1/BacPif1 with 15 nM CMG and 30 nM Pol ε, 10 min on ice; anti-Sld5 beads, 30 min 4 °C; 25 mM Hepes-KOH pH 7.6, 400 mM KOAc, 0.02% NP-40-S, 0.1 mg/mL BSA, 1 mM DTT, 10 mM Mg(OAc)2; immunoblotting
T4 construct: Mcm2, S. cerevisiae, subunit of CMG; Mcm3, S. cerevisiae, subunit of CMG (CBP-TEV-MCM3); Mcm4, S. cerevisiae, subunit of CMG; Mcm5, S. cerevisiae, subunit of CMG; Mcm6, S. cerevisiae, subunit of CMG; Mcm7, S. cerevisiae, subunit of CMG; Cdc45, S. cerevisiae, subunit of CMG (CDC45iFLAG2, internal FLAG tag; detected by anti-FLAG immunoblotting); Sld5, S. cerevisiae, GINS subunit of CMG …

T1 sequence (Q07864 whole entry, chain 1 of 4): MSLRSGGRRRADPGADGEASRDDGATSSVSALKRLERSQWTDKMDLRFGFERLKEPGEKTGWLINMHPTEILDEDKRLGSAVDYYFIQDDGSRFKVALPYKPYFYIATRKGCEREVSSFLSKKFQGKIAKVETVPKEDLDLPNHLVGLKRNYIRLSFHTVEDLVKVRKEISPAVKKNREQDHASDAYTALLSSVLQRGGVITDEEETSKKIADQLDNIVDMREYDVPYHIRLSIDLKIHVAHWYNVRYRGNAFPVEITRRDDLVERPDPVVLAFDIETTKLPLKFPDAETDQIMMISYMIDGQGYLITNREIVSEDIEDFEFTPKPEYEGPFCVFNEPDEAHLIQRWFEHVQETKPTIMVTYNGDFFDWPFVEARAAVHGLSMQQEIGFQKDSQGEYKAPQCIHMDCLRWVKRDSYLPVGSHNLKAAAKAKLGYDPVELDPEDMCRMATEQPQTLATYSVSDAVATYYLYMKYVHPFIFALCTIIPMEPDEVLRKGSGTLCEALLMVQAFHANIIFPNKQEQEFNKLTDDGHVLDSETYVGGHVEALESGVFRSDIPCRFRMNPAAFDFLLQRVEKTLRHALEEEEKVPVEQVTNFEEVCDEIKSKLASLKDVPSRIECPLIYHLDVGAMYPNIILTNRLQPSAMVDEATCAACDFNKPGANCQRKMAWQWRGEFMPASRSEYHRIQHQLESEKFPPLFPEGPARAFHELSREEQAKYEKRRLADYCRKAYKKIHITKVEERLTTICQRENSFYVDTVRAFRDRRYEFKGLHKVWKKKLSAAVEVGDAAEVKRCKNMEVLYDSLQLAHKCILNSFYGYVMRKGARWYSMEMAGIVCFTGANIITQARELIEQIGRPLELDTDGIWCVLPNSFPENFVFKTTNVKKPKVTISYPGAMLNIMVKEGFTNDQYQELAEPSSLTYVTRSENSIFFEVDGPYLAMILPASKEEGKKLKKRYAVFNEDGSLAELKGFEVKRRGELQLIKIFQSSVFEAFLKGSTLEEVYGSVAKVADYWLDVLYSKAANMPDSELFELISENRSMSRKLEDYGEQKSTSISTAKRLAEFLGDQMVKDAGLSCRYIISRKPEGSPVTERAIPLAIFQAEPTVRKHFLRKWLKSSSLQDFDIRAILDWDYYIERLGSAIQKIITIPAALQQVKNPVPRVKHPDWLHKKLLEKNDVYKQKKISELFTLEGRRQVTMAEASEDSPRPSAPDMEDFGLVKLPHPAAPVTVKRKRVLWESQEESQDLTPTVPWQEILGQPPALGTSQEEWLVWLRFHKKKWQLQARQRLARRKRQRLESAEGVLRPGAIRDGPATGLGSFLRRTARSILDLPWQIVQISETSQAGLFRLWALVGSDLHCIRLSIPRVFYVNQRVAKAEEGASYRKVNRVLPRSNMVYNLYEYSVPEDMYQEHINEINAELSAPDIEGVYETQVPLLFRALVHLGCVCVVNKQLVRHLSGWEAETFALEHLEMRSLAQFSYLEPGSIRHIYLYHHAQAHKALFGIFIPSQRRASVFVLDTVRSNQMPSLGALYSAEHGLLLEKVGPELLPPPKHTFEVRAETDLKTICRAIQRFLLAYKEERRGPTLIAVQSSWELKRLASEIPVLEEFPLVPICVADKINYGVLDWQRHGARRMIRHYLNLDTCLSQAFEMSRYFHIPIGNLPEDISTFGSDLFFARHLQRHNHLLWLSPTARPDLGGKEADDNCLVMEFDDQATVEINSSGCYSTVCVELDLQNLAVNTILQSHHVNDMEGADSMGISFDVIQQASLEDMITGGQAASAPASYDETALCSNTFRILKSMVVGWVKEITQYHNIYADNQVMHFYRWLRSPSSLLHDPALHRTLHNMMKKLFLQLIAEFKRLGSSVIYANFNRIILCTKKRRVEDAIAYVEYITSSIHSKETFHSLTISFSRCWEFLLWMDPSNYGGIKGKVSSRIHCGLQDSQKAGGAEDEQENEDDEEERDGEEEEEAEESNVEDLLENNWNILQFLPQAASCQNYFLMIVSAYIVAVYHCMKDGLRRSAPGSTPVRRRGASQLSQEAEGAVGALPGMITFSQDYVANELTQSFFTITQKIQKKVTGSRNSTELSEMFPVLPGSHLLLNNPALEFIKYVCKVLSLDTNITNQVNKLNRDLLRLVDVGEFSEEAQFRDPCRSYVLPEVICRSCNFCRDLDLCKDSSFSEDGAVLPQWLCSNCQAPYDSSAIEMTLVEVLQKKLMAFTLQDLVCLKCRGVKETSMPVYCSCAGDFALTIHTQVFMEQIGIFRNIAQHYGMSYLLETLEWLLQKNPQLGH
T1 sequence (P56282 whole entry, chain 2 of 4): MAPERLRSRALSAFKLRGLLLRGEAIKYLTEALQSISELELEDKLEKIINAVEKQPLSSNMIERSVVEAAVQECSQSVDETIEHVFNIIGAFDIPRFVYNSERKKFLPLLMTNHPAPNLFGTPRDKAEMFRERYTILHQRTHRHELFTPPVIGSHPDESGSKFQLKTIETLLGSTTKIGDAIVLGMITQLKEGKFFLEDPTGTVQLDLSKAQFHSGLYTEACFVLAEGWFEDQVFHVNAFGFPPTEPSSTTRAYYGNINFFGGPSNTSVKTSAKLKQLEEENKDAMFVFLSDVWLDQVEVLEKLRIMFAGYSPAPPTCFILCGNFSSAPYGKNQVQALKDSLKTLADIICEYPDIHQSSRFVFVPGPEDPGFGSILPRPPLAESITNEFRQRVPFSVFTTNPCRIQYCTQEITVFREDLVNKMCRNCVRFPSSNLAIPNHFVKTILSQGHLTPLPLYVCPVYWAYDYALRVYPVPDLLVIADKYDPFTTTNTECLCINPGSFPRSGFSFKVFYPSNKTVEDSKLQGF
T1 sequence (Q9NRF9 whole entry, chain 3 of 4): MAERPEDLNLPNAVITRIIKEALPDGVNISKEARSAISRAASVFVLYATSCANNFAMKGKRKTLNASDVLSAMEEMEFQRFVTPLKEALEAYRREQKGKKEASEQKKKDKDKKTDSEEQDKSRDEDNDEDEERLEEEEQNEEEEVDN
T1 sequence (Q9NR33 whole entry, chain 4 of 4): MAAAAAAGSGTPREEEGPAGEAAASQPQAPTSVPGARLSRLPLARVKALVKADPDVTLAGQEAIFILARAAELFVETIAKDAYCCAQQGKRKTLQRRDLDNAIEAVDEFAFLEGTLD

Binder | binding result [1] | binding result [2] | binding result [3] | binding result [4]
RTEL1 ΔE813-E821 ΔR875-V881 (enzyme, human, UniProt Q9NZ71-1 1-1219, looked up, Plasmid pSP53; also called hsRTEL1ΔE813-E821 ΔR875-V881; source: S. cerevisiae strain ySP070, purified (anti-FLAG M2 resin, HiLoad Superdex 200); not shown: 2XFLAG, C-terminal, kept) MPKIVLNGVTVDFPFQPYKCQQEYMTKVLECLQQKVNGILESPTGTGKTLCLLCTTLAWREHLRDGISARKIAERAQGELFPDRALSSWGNAAAAAGDPIACYTDIPKIIYASRTHSQLTQVINELRNTSYRPKVCVLGSREQLCIHPEVKKQESNHLQIHLCRKKVASRSCHFYNNVEEKSLEQELASPILDIEDLVKSGSKHRVCPYYLSRNLKQQADIIFMPYNYLLDAKSRRAHNIDLKGTVVIFDEAHNVEKMCEESASFDLTPHDLASGLDVIDQVLEEQTKAAQQGEPHPEFSADSPSPGLNMELEDIAKLKMILLRLEGAIDAVELPGDDSGVTKPGSYIFELFAEAQITFQTKGCILDSLDQIIQHLAGRAGVFTNTAGLQKLADIIQIVFSVDPSEGSPGSPAGLGALQSYKVHIHPDAGHRRTAQRSDAWSTTAARKRGKVLSYWCFSPGHSMHELVRQGVRSLILTSGTLAPVSSFALEMQIPFPVCLENPHIIDKHQIWVGVVPRGPDGAQLSSAFDRRFSEECLSSLGKALGNIARVVPYGLLIFFPSYPVMEKSLEFWRARDLARKMEALKPLFVEPRSKGSFSETISAYYARVAAPGSTGATFLAVCRGKASEGLDFSDTNGRGVIVTGLPYPPRMDPRVVLKMQFLDEMKGQGGAGGQFLSGQEWYRQQASRAVNQAIGRVIRHRQDYGAVFLCDHRFAFADARAQLPSWVRPHVRVYDNFGHVIRDVAQFFRVAERTMPAPAPRATAPSVRGEDAVSEAKSPGPFFSTRKAKSLDLHVPSLKQRSSGSPAAGDPQEPVPARQRPRGLLAALEHSEQRAGSPGEEQAHSCSTLSLLSEKRPAEEPRGGSHPEEPVAGAQTDRAKLFMVAVKQELSQANFATFTQALQDYKGSDDFAALAACLGPLFAEDPKKHNLLQGFYQFVRPHHKQQFEEVCIQLTGRGCGYRPEHSIPRRQRAQPVLDPTGRTAPDPKLTVSTAAAQQLDPQEHLNQGRPHLSPRPPPTGDPGSQPQWGSGVPRAGKQGQHAVSAYLADARRALGSAGCSQLLAALTAYKQDDDLDKVLAVLAALTTAKPEDFPLLHRFSMFVRPHHKQRFSQTCTDLTGRPYPGMEPPGPQEERLAVPPVLTHRAPQPGPSRSEKTGKTQSKISSFLRQRPAGTVGAGGEDAGPSQSSGPPHGPAASEWGL | binds | – | – | –
RTEL1ΔR875-V881 (enzyme, human, UniProt Q9NZ71-1 1-1219, looked up, Plasmid pSP52; also called hsRTEL1ΔR875-V881; source: S. cerevisiae strain ySP076, purified (anti-FLAG M2 resin, HiLoad Superdex 200); not shown: 2XFLAG, C-terminal, kept) MPKIVLNGVTVDFPFQPYKCQQEYMTKVLECLQQKVNGILESPTGTGKTLCLLCTTLAWREHLRDGISARKIAERAQGELFPDRALSSWGNAAAAAGDPIACYTDIPKIIYASRTHSQLTQVINELRNTSYRPKVCVLGSREQLCIHPEVKKQESNHLQIHLCRKKVASRSCHFYNNVEEKSLEQELASPILDIEDLVKSGSKHRVCPYYLSRNLKQQADIIFMPYNYLLDAKSRRAHNIDLKGTVVIFDEAHNVEKMCEESASFDLTPHDLASGLDVIDQVLEEQTKAAQQGEPHPEFSADSPSPGLNMELEDIAKLKMILLRLEGAIDAVELPGDDSGVTKPGSYIFELFAEAQITFQTKGCILDSLDQIIQHLAGRAGVFTNTAGLQKLADIIQIVFSVDPSEGSPGSPAGLGALQSYKVHIHPDAGHRRTAQRSDAWSTTAARKRGKVLSYWCFSPGHSMHELVRQGVRSLILTSGTLAPVSSFALEMQIPFPVCLENPHIIDKHQIWVGVVPRGPDGAQLSSAFDRRFSEECLSSLGKALGNIARVVPYGLLIFFPSYPVMEKSLEFWRARDLARKMEALKPLFVEPRSKGSFSETISAYYARVAAPGSTGATFLAVCRGKASEGLDFSDTNGRGVIVTGLPYPPRMDPRVVLKMQFLDEMKGQGGAGGQFLSGQEWYRQQASRAVNQAIGRVIRHRQDYGAVFLCDHRFAFADARAQLPSWVRPHVRVYDNFGHVIRDVAQFFRVAERTMPAPAPRATAPSVRGEDAVSEAKSPGPFFSTRKAKSLDLHVPSLKQRSSGSPAAGDPESSLCVEYEQEPVPARQRPRGLLAALEHSEQRAGSPGEEQAHSCSTLSLLSEKRPAEEPRGGSHPEEPVAGAQTDRAKLFMVAVKQELSQANFATFTQALQDYKGSDDFAALAACLGPLFAEDPKKHNLLQGFYQFVRPHHKQQFEEVCIQLTGRGCGYRPEHSIPRRQRAQPVLDPTGRTAPDPKLTVSTAAAQQLDPQEHLNQGRPHLSPRPPPTGDPGSQPQWGSGVPRAGKQGQHAVSAYLADARRALGSAGCSQLLAALTAYKQDDDLDKVLAVLAALTTAKPEDFPLLHRFSMFVRPHHKQRFSQTCTDLTGRPYPGMEPPGPQEERLAVPPVLTHRAPQPGPSRSEKTGKTQSKISSFLRQRPAGTVGAGGEDAGPSQSSGPPHGPAASEWGL | binds | – | – | –
RTEL1ΔE813-E821 (enzyme, human, UniProt Q9NZ71-1 1-1219, looked up, Plasmid pSP51; also called hsRTEL1ΔE813-E821; source: S. cerevisiae strain ySP075, purified (anti-FLAG M2 resin, HiLoad Superdex 200); not shown: 2XFLAG, C-terminal, kept) MPKIVLNGVTVDFPFQPYKCQQEYMTKVLECLQQKVNGILESPTGTGKTLCLLCTTLAWREHLRDGISARKIAERAQGELFPDRALSSWGNAAAAAGDPIACYTDIPKIIYASRTHSQLTQVINELRNTSYRPKVCVLGSREQLCIHPEVKKQESNHLQIHLCRKKVASRSCHFYNNVEEKSLEQELASPILDIEDLVKSGSKHRVCPYYLSRNLKQQADIIFMPYNYLLDAKSRRAHNIDLKGTVVIFDEAHNVEKMCEESASFDLTPHDLASGLDVIDQVLEEQTKAAQQGEPHPEFSADSPSPGLNMELEDIAKLKMILLRLEGAIDAVELPGDDSGVTKPGSYIFELFAEAQITFQTKGCILDSLDQIIQHLAGRAGVFTNTAGLQKLADIIQIVFSVDPSEGSPGSPAGLGALQSYKVHIHPDAGHRRTAQRSDAWSTTAARKRGKVLSYWCFSPGHSMHELVRQGVRSLILTSGTLAPVSSFALEMQIPFPVCLENPHIIDKHQIWVGVVPRGPDGAQLSSAFDRRFSEECLSSLGKALGNIARVVPYGLLIFFPSYPVMEKSLEFWRARDLARKMEALKPLFVEPRSKGSFSETISAYYARVAAPGSTGATFLAVCRGKASEGLDFSDTNGRGVIVTGLPYPPRMDPRVVLKMQFLDEMKGQGGAGGQFLSGQEWYRQQASRAVNQAIGRVIRHRQDYGAVFLCDHRFAFADARAQLPSWVRPHVRVYDNFGHVIRDVAQFFRVAERTMPAPAPRATAPSVRGEDAVSEAKSPGPFFSTRKAKSLDLHVPSLKQRSSGSPAAGDPQEPVPARQRPRGLLAALEHSEQRAGSPGEEQAHSCSTLSLLSEKRPAEEPRGGRKKIRLVSHPEEPVAGAQTDRAKLFMVAVKQELSQANFATFTQALQDYKGSDDFAALAACLGPLFAEDPKKHNLLQGFYQFVRPHHKQQFEEVCIQLTGRGCGYRPEHSIPRRQRAQPVLDPTGRTAPDPKLTVSTAAAQQLDPQEHLNQGRPHLSPRPPPTGDPGSQPQWGSGVPRAGKQGQHAVSAYLADARRALGSAGCSQLLAALTAYKQDDDLDKVLAVLAALTTAKPEDFPLLHRFSMFVRPHHKQRFSQTCTDLTGRPYPGMEPPGPQEERLAVPPVLTHRAPQPGPSRSEKTGKTQSKISSFLRQRPAGTVGAGGEDAGPSQSSGPPHGPAASEWGL | binds | binds | – | –
Rrm3-2E (Rrm3 K118E, R122E) (enzyme, S. cerevisiae, UniProt P38766 1-723, looked up, Built in the wild-type expression plasmid pTDK15 (pOO8); also called 3FLAG-TEV-RRM3-2E; source: S. cerevisiae strain yOO4, purified (anti-FLAG M2 resin, HiTrap heparin); not shown: 3FLAG, N-terminal, kept) MFRSHASGNKKQWSKRSSNGSTPAASASGSHAYRQQTLSSFFMGCGKKSAAASKNSTTIIDLESGDEGNRNITAPPRPRLIRNNSSSLFSQSQGSFGDDDPDAEFKKLVDVPRLNSYEKSSESLSMTSSLHKTASASTTQKTYHFDEDETLREVTSVKSNSRQLSFTSTINIEDSSMKLSTDSERPAKRSKPSMEFQGLKLTVPKKIKPLLRKTVSNMDSMNHRSASSPVVLTMEQERVVNLIVKKRTNVFYTGSAGTGKSVILQTIIRQLSSLYGKESIAITASTGLAAVTIGGSTLHKWSGIGIGNKTIDQLVKKIQSQKDLLAAWRYTKVLIIDEISMVDGNLLDKLEQIARRIRKNDDPFGGIQLVLTGDFFQLPPVAKKDEHNVVKFCFESEMWKRCIQKTILLTKVFRQQDNKLIDILNAIRYGELTVDIAKTIRNLNRDIDYADGIAPTELYATRREVELSNVKKLQSLPGDLYEFKAVDNAPERYQAILDSSLMVEKVVALKEDAQVMMLKNKPDVELVNGSLGKVLFFVTESLVVKMKEIYKIVDDEVVMDMRLVSRVIGNPLLKESKEFRQDLNARPLARLERLKILINYAVKISPHKEKFPYVRWTVGKNKYIHELMVPERFPIDIPRENVGLERTQIPLMLCWALSIHKAQGQTIQRLKVDLRRIFEAGQVYVALSRAVTMDTLQVLNFDPGKIRTNERVKDFYKRLETLK | – | – | binds | binds

— publication PMC11405395 (The EMBO Journal, 2024)
